Assay results published in publication PMC3785227.
pKd: −log10 of the molar value.

Molecular target: stripped core gp120 (HIV strain YU2), displayed on yeast (HIV-1 strain YU2)
Assay: flow cytometry on cells

## b12, broadly neutralizing anti-gp120 antibody against the CD4 binding site
  pKd: 10.39

## b13, non-neutralizing CD4 binding site-directed anti-gp120 antibody
  pKd: 9.05
